This experiment addresses T1, HIP receptor (EXTL3) (human, UniProt O43909 1-919).
T1 construct: whole, on cells; Endogenous protein of PANC-1 cells, seen by immunostaining and Western blot; also called receptor for Human ProIslet Peptide
T1 sequence (looked up): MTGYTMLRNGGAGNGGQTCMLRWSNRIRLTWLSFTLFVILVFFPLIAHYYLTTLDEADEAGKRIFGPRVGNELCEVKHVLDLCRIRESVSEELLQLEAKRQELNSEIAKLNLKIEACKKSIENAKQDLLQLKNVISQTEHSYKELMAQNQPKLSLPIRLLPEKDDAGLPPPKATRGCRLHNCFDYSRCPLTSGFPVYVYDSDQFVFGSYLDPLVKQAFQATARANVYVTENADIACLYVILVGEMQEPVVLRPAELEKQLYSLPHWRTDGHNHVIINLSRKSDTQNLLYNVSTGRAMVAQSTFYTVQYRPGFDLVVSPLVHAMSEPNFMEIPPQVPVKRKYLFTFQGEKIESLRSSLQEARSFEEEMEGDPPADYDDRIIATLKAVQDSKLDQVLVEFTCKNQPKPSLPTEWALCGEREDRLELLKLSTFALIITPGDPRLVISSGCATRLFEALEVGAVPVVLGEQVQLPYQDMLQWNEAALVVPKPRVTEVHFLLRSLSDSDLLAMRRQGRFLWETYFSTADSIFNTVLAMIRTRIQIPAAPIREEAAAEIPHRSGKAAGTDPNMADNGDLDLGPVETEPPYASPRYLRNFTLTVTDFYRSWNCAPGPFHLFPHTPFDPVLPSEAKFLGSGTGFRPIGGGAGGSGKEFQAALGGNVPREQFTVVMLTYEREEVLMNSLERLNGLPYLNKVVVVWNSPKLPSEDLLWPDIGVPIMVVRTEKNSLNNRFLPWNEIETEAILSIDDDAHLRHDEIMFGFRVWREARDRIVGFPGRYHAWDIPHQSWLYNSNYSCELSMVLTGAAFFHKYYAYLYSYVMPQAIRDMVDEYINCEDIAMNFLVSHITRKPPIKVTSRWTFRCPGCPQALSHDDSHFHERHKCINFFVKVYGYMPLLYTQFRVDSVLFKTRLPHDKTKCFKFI
Put plainly: receptor immunostaining and trafficking in PANC-1 cells (indirect). The protocol:
The upper panels indicated by the Cy3 immunofluorescent staining of EXTL3 (red). In the lower panel of images the Cy3 immunostaining of EXTL3 has been overlaid with DAPI (blue) staining of the nuclei. Cells were grown in standard growth medium as a control and compared to cells grown serum-free medium (SFM) in the presence or absence of HIP. […] The cell borders are well-defined indicating surface expression of EXTL3 on the plasma membrane. The yellow arrows delineate the cell borders while the nuclei are shown in blue. The middle images are cells grown in SFM. EXTL3 is localized in the cytoplasm as indicated by cytoplasmic Cy3 staining. The green arrows show the lack of staining in the position of the nuclei. […] In the lower image of cells grown in SFM and HIP, the blue arrows indicate the position of the nuclei. In the lower image there is an overlap of EXTL3-Cy3 staining and nuclear DAPI staining that corroborates the nuclear localization of EXTL3 (blue arrows). Scale bar=20 μm in all images.

These results are taken from patent US20110171178A1 (CUREDM GROUP, published 2011).

B1: HIP2 (Human proIslet Peptide, Ile-Gly-Leu-His-Asp-Pro-Thr-Gln-Gly-Thr-Glu-Pro-Asn-Gly) (peptide)
peptide: IGLHDPTQGTEPNG
In the case of B1, the binding result is reported as “binds”.

B2: HIP2Blocked (Ac-Ile-Gly-Leu-His-Asp-Pro-Thr-Gln-Gly-Thr-Glu-Pro-Asn-Gly-NH2) (peptide)
peptide: Ac-IGLHDPTQGTEPNG-NH2
notes: also called Optimized HIP2B
Turning to B2, the binding result was “binds”.
